Test results published in paper PMC3169409.

What was measured:
[1] = target: nitrilotriacetate monooxygenase component B from Mycobacterium thermoresistibile (Mycobacterium thermoresistibile); assay: SEC; Superdex 75 26/60 in 20 mM HEPES pH 7.0, 300 mM NaCl, 5% glycerol, 1 mM TCEP
[2] = target: nitrilotriacetate monooxygenase component B from Mycobacterium thermoresistibile (Mycobacterium thermoresistibile); assay: crystal structure; apo structure at 1.6 Å, space group P212121; two independent dimers in the asymmetric unit; crystals from 0.2 M magnesium chloride, 0.1 M MES pH 6.0, 20% PEG 6000 at 289 K

**Q.** With “nitrilotriacetate monooxygenase component B from Mycobacterium thermoresistibile (enzyme)” as the substance, how does the stoichiometry N [1] read?
**A.** Its stoichiometry N is 2.

**Q.** And the stoichiometry N [2]?
**A.** Its stoichiometry N is 2.
